Data: paper PMC3981788, “Allele-specific Characterization of Alanine: Glyoxylate Aminotransferase Variants Associated with Primary Hyperoxaluria” (PLoS ONE, 2014)

Molecular target: the molecule itself
Experiment: SEC; data not shown; 10 uM AGTmi E274D with 100 uM PLP, Sephacryl S-300 10/600 column, 100 mM potassium phosphate buffer pH 7.4, elution volume compared with molecular weight standards

B1: alanine: glyoxylate aminotransferase, minor allele variant, E274D (enzyme, human)
chain: MASHKLLVTPLKALLKPLSIPNQLLLGPGPSNLPPRIMAAGGLQMIGSMSKDMYQIMDEIKEGIQYVFQTRNPLTLVISGSGHCALEAALVNVLEPGDSFLVGANGIWGQRAVDIGERIGARVHPMTKDPGGHYTLQEVEEGLAQHKPVLLFLTHGESSTGVLQPLDGFGELCHRYKCLLLVDSVASLGGTPLYMDRQGIDILYSGSQKALNAPPGTSLISFSDKAKKKMYSRKTKPFSFYLDIKWLANFWGCDDQPRMYHHTIPVISLYSLRDSLALIAEQGLENSWRQHREAAAYLHGRLQALGLQLFVKDPALRLPTVTTVAVPAGYDWRDIVSYVMDHFDIEIMGGLGPSTGKVLRIGLLGCNATRENVDRVTEALRAALQHCPKKKL
notes: alanine: glyoxylate aminotransferase (AGT), human, minor allele (P11L, I340M) with the PH1-associated mutation E274D; SEC was run in the presence of 100 uM PLP (holo form); E274D was found in patients on the minor allele; also called AGTmi E274D; AGTmi^E274D; source: bacteria (pET30a), purified
stoichiometry N: 2
